Laboratory results published in US20150259430A1 (MAB DISCOVERY, published 2015).

Target: T1, recombinant Fc chimeric conjugate of human HER2 (human, UniProt P04626 23-652)
T1 construct: extracellular domain; Coated on the ELISA plate
Assay: ELISA, coated antigen
Procedure: Microtiter plates were coated with a) c-Met, IGF-1R, EGFR, HER2, and/or HER3 protein or b) EGFR, HER2, and/or HER3 (recombinant Fc chimeric conjugates of human c-Met, IGF-1R, EGFR, HER2, HER3 or IL12 Rβ1). After a blocking process, specific antibodies from B-cell supernatants bind to the targets and are then detected by a POD-labeled anti-rabbit IgG antibody. The IL12R binding was used as a counter-screen.
12.5 μL 0.5 μg/mL protein in PBS was transferred to a microtiter plate incubated and washed 3× with Wash Buffer. 90 μL Block Buffer was added to each well, incubated and washed. 12.5 μL Standard Antibody (Anti-EGF-Receptor; HER2 Rabbit anti-Human Monoclonal (extracellular domain) (SP3) Antibody; HER3 (N-terminal) antibody; start concentration 2 μg/ml; IL-12Rbeta1 antibody start concentration 500 ng/ml) in 1:2 dilutions or sample diluted in ELISA buffer was added, incubated and washed. 12.5 μl 1:5000 POD-Antibody (Anti-rabbit IgG, peroxidase-linked species-specific Fab2 fragment (from donkey) (ECL); assay dilution: 1:5000) in Elisa Buffer was added, incubated and washed. 15 μl TMB was added and 15 μl HCl was added after sufficient development. Absorbance (Optical Density O.D.) was read at 450 nm/620 nm.

| Binder | binding result |
| --- | --- |
| Antibody 69 (antibody, V domains shown, rabbit IgG in B-cell supernatant) VH: QSVEESGGRLVTPGTLLTLTCTVSGFSLTTYAVSWVRQAPGKGLEYMGYISATGSTYYASWAKGRFTISRTSTTVDLKITSPTIEDTATYFCARIDAATSYSAFDPWGPGTLVTVSS VL: AQVLTQTPSSVSAAVGGTVTINCQSSESVYKNNYLAWYQQKPGQPPRLLIYLASTLASGVPSRFSGSGSGTQFTLTISGVQCDDAATYYCEATYVGVDWYWAFGGGTEVVVK | no binding (tested: OD 0.1 or lower) |
| Antibody 11 (antibody, V domains shown, rabbit IgG in B-cell supernatant) VH: QSVEESGGRLVTPGTPLTLTCTVSGFSLRSYAMSWVRQAPGKGLEWVGIISTSGDTYYASWAKGRFTISKTSTTVDLKITSPTTEDTATYFCARYSYDDYGDYVRVGMDLWGPGTLVTVSS VL: AAVLTQTPSPVSAAVGGTVSISCQSSKSVYYNNWLSWFQQKPGQRPKLLIYGASTLASGVPSRFKGSGSETQFTLTISDVQCDDAATYYCAGGYTSSSDTVSFGGGTEVVVK | no binding (tested: OD 0.1 or lower) |
| Antibody 62 (antibody, V domains shown, rabbit IgG in B-cell supernatant) VH: QSVEESGGRLVTPGTPLTLTCTVSGFSLSTNDIGWVRQAPGKGLEWIGYIWSGVKTYYVGWAKGRFTISKTSSTTVDLKMTSLTTEDTATYFCARVNSFSYVYSLWGPGTLVTVSS VL: AYDMTQTPGSVEVAVGGTVTIKCQASEDIHSSLAWYQQKPGQPPKLLIYLASTLESGVPSRFKGSGSGTEYTLTISGVECADAATYYCQQHHSTSGVDNAFGGGTEVVVK | no binding (tested: OD 0.1 or lower) |
| Antibody 75 (antibody, V domains shown, rabbit IgG in B-cell supernatant) VH: QSVEESGGRLVTPGTPLTLTCTVSGFSLSRNAMSWVRQAPGKGLEWIGIINIYGTTWYASWAKGRFTISKTSSTTVTLKITSPTTEDTATYFCARDYGGDSATRLNLWGQGTLVTVSS VL: DVVMTQTPASVEAAVGGTVTIKCQASQSIGGYLSWYQQKPGQPPKLLIYDASNLEIGVPSRFKGSGSGTEYTLTISDLECADAVTYYCQCTYGYGISSSYGNAFGGGTEVVVK | no binding (tested: OD 0.1 or lower) |
| Antibody 71 (antibody, V domains shown, rabbit IgG in B-cell supernatant) VH: QSVEESGGRLVTPGTPLTLTCTVSGFSLSRNAMSWVRQAPGKGLEWIGIINIYGTTWHAGWAKGRFTISKTSSTTVTLKITSPTTEDTATYFCARDYGGDSATRLNLWGQGTLVTVSS VL: DVVMTQTPASVEAAVGGTVTIKCQASQSIGGYLSWYQQKPGQPPKLLIYDASNLEIGVPSRFKGSGSGTEYTLTISDLECADAVTYYCQCTYGYGISSSYGNAFGGGTEVVVK | no binding (tested: OD 0.1 or lower) |

Second part, the binder after the results:

| binding result | Binder |
| --- | --- |
| no binding (tested: OD 0.1 or lower) | Antibody 22 (antibody, V domains shown, rabbit IgG in B-cell supernatant) VH: QSVEESGGRLVTPGTPLTLTCTVSGFSLSNYGMSWVRQAPGKGLEWIGIITSRSTYYASWAKGRFTISKTSSTTVDLKMTSLTTEDTATYFCGVNNLWGQGTLVTVSS VL: DPVLTQTPSSVSAAVGGTVTISCQSSQTINNNDLSWFQQKPGQPPKRLIYEASTLTSGVPSRFKGSGSGTQFTLTISDVQCDDAATYYCLGGYYSYGWYFGFGGGTEVVVK |
| no binding (tested: OD 0.1 or lower) | Antibody 23 (antibody, V domains shown, rabbit IgG in B-cell supernatant) VH: QSLEESGGRLVKPGTPLTLTCTASGFSLSSYYMIWVRQAPGKGLEYIGIISSSGSTYYASWAKGRFTISKTSSTTVDLKMTSLTTEDTATYFCGVNNLWGQGTLVTVSS VL: DPVLTQTPSSVSAAVGGTVTISCQSSQSINNNDLSWFQKKPGQPPKRLIYEASTLTSGVPSRFKGSGSGTQFTLTISDVQCDDAATYYCLGGYYSYGWYFGFGGGTEVVVK |
| no binding (tested: OD 0.1 or lower) | Antibody 64 (antibody, V domains shown, rabbit IgG in B-cell supernatant) VH: QEQLKESGGGLVTPGTPLTLTCTASGFTISSYDMGWVRQAPGKGLEWIGYIWSGGSTYYANWAKGRFTISKTSTTVDLKMTSLTTEDTATYFCARVEFYSYVYVLWGPGTLVTVSS VL: AFELTQTPSSVEAAVGGTVTIKCQASQSISGCLAWYQQKPGQPPKLLIYLASTLASGVSSRFRGSGSGTEYTLTISGVECDDAATYYCQQHYSSNNVDNAFGGGTEVVVK |
